Here are results for 30 sequences from the nanobody polyreactivity screen of Harvey et al. (2022).

This series in a line: yeast display, Sf9 membrane polyspecificity reagent, FACS + sequencing; frameworks hold sequencing errors. The method, boiled down:
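Galactose induction of a Saccharomyces cerevisiae BJ5465 synthetic nanobody display library ran 36–48 hours. The cells were then stained for 1 hour at 4 °C with 10% biotinylated, detergent-solubilized Sf9 membrane reagent, pulled down on streptavidin microbeads and FACS-sorted into low and high (top ~1%) gates on expression and reagent-binding fluorescence. Labels for polyreactivity follow the gate of origin.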
Regarding “QVQLVESGGGLVQAGGSLRLSCAASGSIFSPYTMGWYRQAPGKEREFVAAIRWTTGSTYYADSVKGRFTISRDNAKNTVYLQMNSLKPEDTAVYYCAADPSYRSRLFRSYEYDYWGQGTQVTVSS”, the “polyreactivity (PSR sort gate)” value is recorded as “high polyreactivity”.

“QVQLVESGGGLVQAGGSLRLSCAASGSIFSRNAMGWYRQAPGKEREFVARISWSSTSTNYADSVKGRFTISRDNAKNTVYLQMISLKPEVTAVDYCSADFRGDRRFDYWGQGTQVTVSS”: the “polyreactivity (PSR sort gate)” value is “low polyreactivity”.

“QVQLVESGGGLVQAGGSLRLSCAASGSIFSRNAMGWYRQAPGKEREFVARISWSSTSTNYADSVKGRFTISRDNSKNTVFLLINSLKPEDTAVYYCAADFRGDRRFDYWGQGTQVTVSS”: the “polyreactivity (PSR sort gate)” value was “low polyreactivity”.

As for “QVQLVESGGGLVQAGGSLRLSCAASGSIFSRYAMGWYRQSPGKERELVAAISQRAGSTYYADSVKGRFTISRDNAKNTVYLQMNSLKPEDTAVYYCAARRRGRKERGEDYWGQGTQVTVSS”, the “polyreactivity (PSR sort gate)” value was “high polyreactivity”.

Turning to “QVQLVESGGGLVQAGGSLRLSCAASGSIFSSNAMGWYRQAPGKERELVAAIDYSGGRTYYADSVKGRFTISRDNAKNTVYLQMNSLKPEDTAVYYCAKLIPVHSRYDYWGQGTQVTVSS”, the “polyreactivity (PSR sort gate)” value is reported as “low polyreactivity”.

For the sequence “QVQLVESGGGLVQAGGSLRLSCAASGSIFSSNAMGWYRQAPGKERELVAAITGSDGSTYYADSVKGRFTISRDNAKNTVYLQMNSLKPEDTAVYYCAAVGRYYYFDGFYYWGQGTQVTVSS”, the “polyreactivity (PSR sort gate)” value is reported as “low polyreactivity”.

In the case of “QVQLVESGGGLVQAGGSLRLSCAASGSIFSSNTMGWYRQAPGKERELVAAITSGGTTYADSVKGRFTISRDNAKNTVYLQMNSLKPEDTAVYYCAARYYIHRGYDYDYWGQGTQVTVSS”, the “polyreactivity (PSR sort gate)” value was “high polyreactivity”.

As for “QVQLVESGGGLVQAGGSLRLSCAASGSIFSSYAMGWYRPAPGKERELVAAITRTGGRTYYADSVKGRFTISRDNAKNTVYLQMNSLKPEDTAVYYCAAKQVSRGVAAYDYWGQGTQVTVSS”, the “polyreactivity (PSR sort gate)” value was “high polyreactivity”.

Regarding “QVQLVESGGGLVQAGGSLRLSCAASGSIFSSYAMGWYRQAPGKERELVAAITTRGDSTRYADSVKGRFTISRDNAKNTVYLQMNSLKPEHTAVYYCNARYRDPYWDSGYWGQGTQVTVSS”, the “polyreactivity (PSR sort gate)” value was “high polyreactivity”.

Take “QVQLVESGGGLVQAGGSLRLSCAASGSIFSSYAMGWYRQAPGKERELVASISSGGSTNYADSVKGRFTISRDNAKNTVYLQMNSLKPEDTAVYYCNVDLYNWRGDSTGYDYWGQGTQVTVSS”: the “polyreactivity (PSR sort gate)” value is listed as “low polyreactivity”.

Regarding “QVQLVESGGGLVQAGGSLRLSCAASGSIFSSYTMGWYRPAPGKERELLAAISSTGSTYYADSVKGRFTISRDNAKNTVYLQMNSLKPEDTAVYYCAARGWYWQQYKGHTRYDYWGQGTQVTVSS”, the “polyreactivity (PSR sort gate)” value is “high polyreactivity”.

“QVQLVESGGGLVQAGGSLRLSCAASGSIFSTNAMGWYRQAPGKEWELVAVITGIGGITYYADSVKGRFTISRDNAKNTDYLQMNSLKPEDTAVYYCAADPISEFYWGVKDRYDYWGQGTQVTVSS”: the “polyreactivity (PSR sort gate)” value is “low polyreactivity”.

As for “QVQLVESGGGLVQAGGSLRLSCAASGSIFSTNGMGWYRQAPGKERELVAAISTGGRTYYADSVKGRFTISRDNAKNTVYLQMNSLKPEDTAVYYCAKRFGYRSTEILDYWGQGTQVTVSS”, the “polyreactivity (PSR sort gate)” value is listed as “low polyreactivity”.

Turning to “QVQLVESGGGLVQAGGSLRLSCAASGSIFSTYAMGWSRQAPGKERELVAAINRSGGSTTYADSVKGRCTISRDNAKNTVYLQMNSLKPEDTAVYYCAKAFRGHYWGQGTQVSVSS”, the “polyreactivity (PSR sort gate)” value is recorded as “high polyreactivity”.

In the case of “QVQLVESGGGLVQAGGSLRLSCAASGSIFSTYAMGWYRQAPGKERELVAAITTSGGRTYYADSVKGRFTISRDNAKNTVYVQMNSLKPEETAVYYCNAVRGGRYGLDYWGQGTQVTVSS”, the “polyreactivity (PSR sort gate)” value is listed as “high polyreactivity”.

Turning to “QVQLVESGGGLVQAGGSLRLSCAASGSIFSTYAMGWYRQAPGKERELVASINYSGGSTYYADSVKGRFTISRDNAKNTVYLQMNSLKPEDTAVYYCNTGPFVGFDYWGQGTQVTVSS”, the “polyreactivity (PSR sort gate)” value is on record as “low polyreactivity”.

In the case of “QVQLVESGGGLVQAGGSLRLSCAASGSIFSTYTMGWYRQAPGKERELVAGISKSGGSTYYADSVKGRFTISRDNAKNTVYLQMNSLKPEDTAVYYCAAPVPKTDKLLRMYYWGQGTQVTVSS”, the “polyreactivity (PSR sort gate)” value is “high polyreactivity”.

For “QVQLVESGGGLVQAGGSLRLSCAASGSIFSTYVMGWYRPAPGKERELVAAIRWRATSTFYADSVKGRFTISRDNAKNTVYLQMNSLKPEDTAVYYCNRYHRTSWRAKYDYWGQGTQVTVSS”, the “polyreactivity (PSR sort gate)” value is “high polyreactivity”.

For the sequence “QVQLVESGGGLVQAGGSLRLSCAASGSIFSTYVMGWYRQAPGKERELVAAITVSVGSTYYADSVKGRFTISRDNAKNTVYLQMNSLKPEDTAVYYCAAYGGTGYPFDAYYHDYDYWGQGTQVSVSS”, the “polyreactivity (PSR sort gate)” value is given as “low polyreactivity”.

With “QVQLVESGGGLVQAGGSLRLSCAASGSIFSVNAMGWYRQAPGKERELVASINFRGGRTYYADSVKGRFTISRDNAKNTVYLQMNSLKPEDTAVYYCAAVISQTDTGYGPSFRVYYWGQGTQVTVSS”, the “polyreactivity (PSR sort gate)” value was “high polyreactivity”.

As to “QVQLVESGGGLVQAGGSLRLSCAASGSIFSVYVMGWYRQAPGKERELVAAISWSDSDTYYADSVKGRFTISRDNAKNTVYLQMNSLKPEDTAVYYCAAETFDYADYIANGSGEYDYWGQGTQVTVSS”, the “polyreactivity (PSR sort gate)” value was “high polyreactivity”.

In the case of “QVQLVESGGGLVQAGGSLRLSCAASGSIFSWYAMGWYRQAPGKERELVAAISGITGSTYYADSVKGRFTISRDNAKNTVYLQMNSLKPEDTAVYYCRALAGYASGMDYWGQGTQVTVSS”, the “polyreactivity (PSR sort gate)” value is listed as “high polyreactivity”.

For the sequence “QVQLVESGGGLVQAGGSLRLSCAASGSIFSWYAMGWYRQAPGKERELVAAISNAGRTYYADSVKGRFTISRDNAKNTVYLQMNSLKPEDTAVYYCAAAGPRQGNYGGYEYWGQGTQVTVSS”, the “polyreactivity (PSR sort gate)” value is “high polyreactivity”.

Take “QVQLVESGGGLVQAGGSLRLSCAASGSIFSYDAMGWYRLAPGKERELVAVINSGGRTNYADSVKGRFTISRDNAKNTVYLQMNRLKPEDTAVYYCAAQGYFVDRAGRYDRGDYWGQGTQVTVSS”: the “polyreactivity (PSR sort gate)” value is given as “high polyreactivity”.

Consider “QVQLVESGGGLVQAGGSLRLSCAASGSIFSYNAMGWSRQAPGNERELVARISYSGGSTYYADSVKGRFTISRDNAKNTVYLQMNSLKPEDTAVYYCAKRAYGWPYDYWGQGTQVTVSS”, for which the “polyreactivity (PSR sort gate)” value is on record as “high polyreactivity”.

“QVQLVESGGGLVQAGGSLRLSCAASGSIFSYNVMGWYRPAPGKERELVAAITQSGTSTYYADSVKGRFTISRDNAKNTVYLQMNSLKPEDTAVYYCAVDWYSAYGGYYWSQYDYWGQGTQVTVSS”: the “polyreactivity (PSR sort gate)” value is recorded as “low polyreactivity”.

As to “QVQLVESGGGLVQAGGSLRLSCAASGSIFSYYAMGWSSQAPGKERELVAAISKRGASTYYADSVKGRFSISRDIAKNTVYLQMNSLKPEDTAVYYCAAYRQGSAYDYWGKGTQVTVSS”, the “polyreactivity (PSR sort gate)” value is “high polyreactivity”.

In the case of “QVQLVESGGGLVQAGGSLRLSCAASGSIFSYYAMGWYRQAPGKERELVAAINGGDSTNYADSVKGRFTISRDNAKNTVYLQMNSLKPEDTAVYYCAADNYDAALLFEYYYWGQGTQVTVSS”, the “polyreactivity (PSR sort gate)” value is recorded as “low polyreactivity”.

Consider “QVQLVESGGGLVQAGGSLRLSCAASGSIFSYYAMGWYRQAPGKERELVAAISQSGGSTYYADSVKGRFTISRDNAKNTVYLQMNSLKPEDTAVYYCNAVARHTRSKYGSWGQGTQVTVSS”, for which the “polyreactivity (PSR sort gate)” value is “high polyreactivity”.

Regarding “QVQLVESGGGLVQAGGSLRLSCAASGSIFSYYAMGWYRQAPGKERELVAAISRSGVSTYYADSVKGRFTISRDNAKNTVYLQMNSLKPEDTAVYYCNAVFTWPRRKYGYDYWGQGTQVTVSS”, the “polyreactivity (PSR sort gate)” value is “high polyreactivity”.
